The values that follow come from the nanobody polyreactivity screen of Harvey et al. (2022).

The nature of the data set: yeast display, Sf9 membrane polyspecificity reagent, FACS + sequencing; frameworks hold sequencing errors. The method in brief:
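Galactose-induced (36–48 hours) yeast carrying a synthetic nanobody display library were exposed to 10% biotinylated, detergent-solubilized Sf9 membrane reagent at 4 °C for 1 hour. FACS followed streptavidin microbead enrichment, using low and high (top ~1%) gates for expression (anti-HA) and reagent binding (streptavidin). Colony PCR, MiSeq 2 × 250 sequencing and CDR-length filtering followed. Labels for polyreactivity reflect the gate of origin.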
As to “QVQLVESGGGLVQAGGSLRLSCAASGLTFRGYTMGWYRQAPGKERELVARITYSGGSTYYADSVKGRFTISRDNAKNTVYLQMNSLKPEDTAVYYCAKEIWRHWTGDYWGQGTQVTVSS”, the “polyreactivity (PSR sort gate)” value is recorded as “high polyreactivity”. For “QVQLVESGGGLVQAGGSLRLSCAASGLTFRPNAMGWYRQAPGKERELVAAITWRGGRTYYADSVKGRFTISRDNAKNTVYLQMNSLKPEDTAVYYCAADSPYRGRPGPLNYGGDYWGQGTQVTVSS” the value was “high polyreactivity”.

Take “QVQLVESGGGLVQAGGSLRLSCAASGLTFRSYAMGWYRPAPGKEREFVAAITGSGDTTYYADSVKGRFTISRDNAKNTVYLQMNSLKPEDTAVYYCNADRDYLWITLYEYWGQGTQVTVSS”: the “polyreactivity (PSR sort gate)” value was “high polyreactivity”. In the case of “QVQLVESGGGLVQAGGSLRLSCAASGLTFRWYAMGWYRQAPGKERELVAAISWSGGSTYYADSVKGRFTISRDNAKNTVYLQMNSLKPEDTAVDYCAASYYADRSKAYDYWGQGTQLTVSS” it was “high polyreactivity”; in that of “QVQLVESGGGLVQAGGSLRLSCAASGLTFRYNAMGWYRQAPGKERELVAAIRTSGGSTYYADSVKGRFTISRDNAKNTVYLQMNSLKPEDTAVYYCAARSKSYYGGYARGYWGQGTQVTVSS”, “high polyreactivity”.

As for “QVQLVESGGGLVQAGGSLRLSCAASGLTFRYYAMGWYREAPGKEREFVAAITSSGGSTDYADSVKGRFTISRDNAKNSVYLQMNSVKPDDTGVFYCAAATNTQESVPMYYWGQGTQVTVSS”, the “polyreactivity (PSR sort gate)” value was “low polyreactivity”. “QVQLVESGGGLVQAGGSLRLSCAASGLTFRYYAMGWYRQAPGKERELVAAITRRGSTYYADSVKGRFTISRDNAKNTVYLQMNSLKPEDTAVYYCATVTGFHSSPLRDLDYWGQGTQVTVSS”: the “polyreactivity (PSR sort gate)” value is “high polyreactivity”. For “QVQLVESGGGLVQAGGSLRLSCAASGLTFRYYAMGWYRQAPGKERELVAAITRRGSTYYADSVQGRFTISRDNAKNTVYLQMNSLKPEDTAVYYCAADDPYTPQYPDVTYDYWGQGTQVTVSS” the value was “high polyreactivity”.

In the case of “QVQLVESGGGLVQAGGSLRLSCAASGLTFRYYAMGWYRQAPGKEREWVASITSRGTSTYYADSVKGRFTISRDNAKNTVYLQMNSLKPEDTAVYYCAKPVGTVGYDYWGQGTQVTVSS”, the “polyreactivity (PSR sort gate)” value is given as “high polyreactivity”. For “QVQLVESGGGLVQAGGSLRLSCAASGLTFRYYGMGWYRQAPGKERELVAAITSSGGSTRYADSVKGRFTISRDNAKNTVYLQMNSLKPEDTAVYYCAASTWYGYDYWGQGTQVTVSS” the value was “high polyreactivity”; for “QVQLVESGGGLVQAGGSLRLSCAASGLTFSDYAMGWYRQAPGKEREFVAAITRNGASTRYADSVKGRFTISRDNAKNTVYLQMNRLKPEDTAVYYCSTDVGFGRKQRPHRPGYGYWGQGTQVTVSS”, “low polyreactivity”.

For “QVQLVESGGGLVQAGGSLRLSCAASGLTFSINAMGWYIQAPGKERELVAAISRSGGRTYYADSVKGRFTISRDNAKNTVYLQMNSLKPEDTAVYYCAADKTQSHYDYWGQGTQVTVSS”, the “polyreactivity (PSR sort gate)” value is “high polyreactivity”. For “QVQLVESGGGLVQAGGSLRLSCAASGLTFSIYAMGWYRQAPGKERELVAAISSTGSTNYADSVKGRFTISRDNAKNTVYLQMNSLKPEDTAVYYCAAELQPSPVGGIIQYGFDYWGQGTQVTVSS” the value was “low polyreactivity”; for “QVQLVESGGGLVQAGGSLRLSCAASGLTFSNYAMGWYRQAPGKEREFVAAISASGGSTYYAHSVKGRFTISRDYAKNTVYLQMNRLTPEDTAVYYCAASTTRPVYPANDDYWGQGTQVTVSS”, “low polyreactivity”. In the case of “QVQLVESGGGLVQAGGSLRLSCAASGLTFSPYAMGWYRQAPGKERELVAAISYSGGSTYYADSVKGRFTISRDNAKNTVYLQMISLKPEDTAVYYCAVVVPNLLRDGRRMYYWGQGTQVTVSS” it was “high polyreactivity”.

In the case of “QVQLVESGGGLVQAGGSLRLSCAASGLTFSRYAMGWYRQAPGKERELVAAISRRGGITYYADSVKGRFTISRDNAKNTVYLQMNSLKPEDTAVYYCNKDYGGELDYWGQGTQVSVSS”, the “polyreactivity (PSR sort gate)” value is reported as “high polyreactivity”. “QVQLVESGGGLVQAGGSLRLSCAASGLTFSTNAMGWYRQAPGKEREFVAAISFNGGSTYYADSVKGRFTISRDNAKNTVYLQMNSLKPEDTAVYYWNAVKYRYLEYNYWGQGTQVTVSS”: the “polyreactivity (PSR sort gate)” value is given as “high polyreactivity”. “QVQLVESGGGLVQAGGSLRLSCAASGLTFSTYDMGGYRQAPGKERELVAAITSGDGSTYYADSVKGRFTISRDNAKNTVYLQMNSLKPEDTAVYYCAADYLEWYGDVLFPYDYWGQGTQVTVSS”: the “polyreactivity (PSR sort gate)” value is listed as “low polyreactivity”. For “QVQLVESGGGLVQAGGSLRLSCAASGLTFSTYDMGWYRQAPGKERELVAAITSGDGSTYYADSVKGRFTISRDTAKNTVYLQMNSLKPEDTAVYYCAADYLEWYGDVLFPYDYWGQGTQVTVSS” the value was “low polyreactivity”; for “QVQLVESGGGLVQAGGSLRLSCAASGLTFSVYAMGWYRQAPGKERELVASISSGGTSTYYADSVKGRFTISRDNAKNTVYLQMNSLKPEDTAVYYCAAYSYYTGDQYSYDYWGQGTQVTVSS”, “low polyreactivity”; for “QVQLVESGGGLVQAGGSLRLSCAASGLTFSWNAMGWYRQAPGKERELVAAISSRGGSTYYADSVKGRFKISRDNAKNTVYLQMNSLKPEDTAVYYCNAHGRRFLGDYGYWGQGTQVTVSS”, “low polyreactivity”. In the case of “QVQLVESGGGLVQAGGSLRLSCAASGLTFSYYTMGWYRQAPGKERELVAAISKSAGSTYYADSVKGRFTISRDNAKNTVYLQMNSLKPEDTAVYYCAARFGYQYSYGYNYWGQGTQVTVSS” it was “high polyreactivity”; in that of “QVQLVESGGGLVQAGGSLRLSCAASGLTFTHYALGWYRQAPGKERELVAAIAWRGGSTYYADSVKGRFTISRDNAKNTVYLQMNSLKPEDTAVYYCAVARSYRGEMDYWGQGTQVTVSS”, “low polyreactivity”.

For the sequence “QVQLVESGGGLVQAGGSLRLSCAASGLTFTNYAMGWYRQAPGKERELVAAISRSGARTYYADSVKGRFTISRDNAKNTVYLQMNSLKPEDTAVYYCATRYLSRGVYNYDYWGQGTQVTVSS”, the “polyreactivity (PSR sort gate)” value is on record as “high polyreactivity”. In the case of “QVQLVESGGGLVQAGGSLRLSCAASGLTFTPYTMGWYRQAPGKERELVAAITSSAARTYYADSVKGRFTISRDKAKNTVYFQMNSLKPEDTAVYYCNRYRLPSGRYEYWGQGTQVTVSS” it was “high polyreactivity”; in that of “QVQLVESGGGLVQAGGSLRLSCAASGLTFTRYTMGWYRQAPGKERELVAAITSSGGSTYYADSVKGRFTISRDNAKNTVYLQMNSLKPEDTAVYYCAARYPGTRGDGYWGQGTQVTVSS”, “high polyreactivity”.

Consider “QVQLVESGGGLVQAGGSLRLSCAASGLTFTSYAMGWYRQAPGKERELVAAITSGGSTYFADSVKGRFTISRDNAKNTVYLQMNSLKPEDTAVYYCNVTVYTRWYRSHSFWSTFRMDYWGQGTQVTVSS”, for which the “polyreactivity (PSR sort gate)” value is “low polyreactivity”. “QVQLVESGGGLVQAGGSLRLSCAASGLTFTTYAMGWYRPAPGKERELVASIRTGGSTNYADSVKGRFTISRDNAKNTVYLQMNSLKPEETAVYYCAAGRRIDKRYEYWGQGTQFTVSS”: the “polyreactivity (PSR sort gate)” value is “low polyreactivity”. Consider “QVQLVESGGGLVQAGGSLRLSCAASGLTFVFYAMGWYRQAPGKERELVAAISSSGGSTNYADSVKGRFTISRDNAKNTVYLQMNSLKPEDTAVYYCNARGRSGGGRYDYWGQGTQVTVSS”, for which the “polyreactivity (PSR sort gate)” value is “high polyreactivity”. Turning to “QVQLVESGGGLVQAGGSLRLSCAASGLTFVFYAMGWYRQAPGNERELVAAISWSTGRTYYADSVKGRFTISRDNAKNTVYLQMNSLKPEDTAVYYCAASYLGRKYDYWGQGTQVTVSS”, the “polyreactivity (PSR sort gate)” value is “high polyreactivity”. In the case of “QVQLVESGGGLVQAGGSLRLSCAASGLTFVIYAMGWYRQAPGKERELVARITWSGGSTYYADSVKGRFTISRDNAKNTVYLQMNSLKPEETAVDYCAARRFYYYNAGYDSWGQGTQVTVSS” it was “low polyreactivity”. Consider “QVQLVESGGGLVQAGGSLRLSCAASGLTFVRYTMGWYRQAPGKVRELVAAITWSGGSTYYADSVKGRFTISRDNAKNTVYLQMNSLKPQDTAVYYCAARHRYWYGVTVDYWGQGTHVTVSS”, for which the “polyreactivity (PSR sort gate)” value is reported as “high polyreactivity”.

For the sequence “QVQLVESGGGLVQAGGSLRLSCAASGLTFVRYTMGWYRQPPGKVRELVAAITRGDGTNYADSVKGRFTISRDNAKNTVYLHLNCMKPEDTAVYLCADQEHFLWNYYAFDYWGQGTQVTVSS”, the “polyreactivity (PSR sort gate)” value was “low polyreactivity”.

Consider “QVQLVESGGGLVQAGGSLRLSCAASGLTFVVYAMGWYRQAPGKERELVASITSSGGRTYYADSVKGRFTISRDNAKNTVYLQMNSLKPEDTAVYYCNKYTWWLGSVDYWGQGTQVTVSS”, for which the “polyreactivity (PSR sort gate)” value is “high polyreactivity”.

Turning to “QVQLVESGGGLVQAGGSLRLSCAASGLTFVYYAMGWYRQAPGKEMELVAAITSGGTTHYADSVKGRFTISRDNAKNTVYLQMNSLKPEDTAVYYCAATLGRWKRTYGYWGQGTQVTVSS”, the “polyreactivity (PSR sort gate)” value was “high polyreactivity”. On to “QVQLVESGGGLVQAGGSLRLSCAASGLTFWAYFMGWYRQAPGKEREFVAAITLSSGSTYYADSVKGRFTISRDNEKNTVYLQMNSLKPEYTAVYYCAATRDYGYWMYSWGQGTQGTVSS”, for which the “polyreactivity (PSR sort gate)” value was “high polyreactivity”.

Regarding “QVQLVESGGGLVQAGGSLRLSCAASGLTFWFYAMGWYRQAPGKERELVASISRGGRTYYADSVKGRFTISRDNAKNTVYLQMNSLKPEDTAVYYCIADELYYEYKDYDYWGQGTQVTVSS”, the “polyreactivity (PSR sort gate)” value was “low polyreactivity”. Regarding “QVQLVESGGGLVQAGGSLRLSCAASGLTFWKNVMGWYRQAPGKERELVAAISWSGDSTYYADSVKGRFTISRDNAKNTVYLQMNSLKPEDTAVYYCAARYVSRYWAGRYPTRQRDSWGQGTQVTVSS”, the “polyreactivity (PSR sort gate)” value was “high polyreactivity”. As to “QVQLVESGGGLVQAGGSLRLSCAASGLTFWLYAMGWYRPAPGKERELVAAITRSGGSTSYADSVKGRFTISRDNAKNTVYLQMNSLKPEDTAVYYCNADSPGYTAVRLVEFDYWGQGTQVTVSS”, the “polyreactivity (PSR sort gate)” value is “low polyreactivity”. In the case of “QVQLVESGGGLVQAGGSLRLSCAASGLTFWWYAMGWYRQAPGKERELVAAISSSGGSTYYADSVKGRFTISRDNAKNTVYLQMNSLKPEDTAVYYCAVASWDNYWDPYGYWGQGTQVTVSS” it was “low polyreactivity”.
